These results are taken from the nanobody polyreactivity screen of Harvey et al. (2022).

The data set is described as follows: yeast display, Sf9 membrane polyspecificity reagent, FACS + sequencing; frameworks hold sequencing errors. In short, it runs like this: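 Nanobodies came from a synthetic yeast display library in Saccharomyces cerevisiae BJ5465, induced with galactose for 36–48 hours and stained for 1 hour at 4 °C with 10% biotinylated, detergent-solubilized Sf9 membrane reagent. Cells were enriched on streptavidin microbeads and then FACS-sorted, with low and high (top ~1%) gates set on anti-HA fluorescence for expression and streptavidin fluorescence for reagent binding. Each polyreactivity label reflects the gate a clone came from. Genes were amplified by colony PCR, sequenced by MiSeq 2 × 250 and filtered by CDR length.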
In the case of “QVQLVESGGGLDQAGGSLRLSCAASGFIINRNAMGWYRQAPGKERELVADITGGSTYYADSVKGRFTISRDNAKNTVYLQMNSLKPEDNAVYYCAADVLRITTLLFRGTGFDSWGHGTQVTVSS”, the “polyreactivity (PSR sort gate)” value is “low polyreactivity”. Take “QVQLVESGGGLDQAGGSLRLSCAASGFIYSYAMGWYRQAPGKERELVAAIRRGGPTNYADSVKGRFSISRDNAKTTVYLPMNSRKPEDTAVYYCAADSWFRRNEYDDWGQGTQVTVAS”: the “polyreactivity (PSR sort gate)” value is on record as “high polyreactivity”. Next, “QVQLVESGGGLDQAGGSLRLSCAASGFTLDYYTMGRYRQAPGKERELVAAISWIGTSTYYADSVKGRFTISRDNAKNTVYLQMNSLKPEDTAVYYCAAVGASVDDYYWGQGTQVTVSS”: “high polyreactivity”. Next, “QVQLVESGGGLDQAGGSLRLSCAASGIIFARNAMGWYRQAPGKERELVAAISGSGGRTYYADSVKGRFTISRDNAKNTVYLQMNSLKPEDTAVYYCAAEYTYRAVALDYWGQGTQVTVSS”: “high polyreactivity”; “QVQLVESGGGLDQAGGSLRLSCAASGIIFLSYAMGRYRQAPGKERELVAAIRSRGDSTYYADSVKGRFTNSRDNAKNTVYLQMNSLKPEDTAVYYCNARQRRYPYGYWGQGTQVTVSS”: “high polyreactivity”.

With “QVQLVESGGGLDQAGGSLRLSCAASGIIFVSNAMGWYRQAPGKERELVATITWTGGSTYYADSVKGRFTISRDNAKNTVYLQMNSLKPEDTAVYYCAADLSIRYDHEYGYWGQGTQVTVSS”, the “polyreactivity (PSR sort gate)” value is reported as “low polyreactivity”.

On to “QVQLVESGGGLDQAGGSLRLSCAASGITFTRNAMGWYRQAPGKERELVAAITKSGGGTYYADSVKGRFTISRDNAKNTVYLQMNSLKPEDTAVYYCAAYTDKYGDYNYWGQGTLVTVSS”, for which the “polyreactivity (PSR sort gate)” value is “high polyreactivity”. Next, “QVQLVESGGGLDQAGGSLRLSCAASGITFVWNAMGWYRQAPGKERELVATISRGGVRTYYADSVKGRFTISRDNAKNTVYLQMNSLKPEDTAVYYCNKTTLLTVEYDYWGQGTQLTVSS”: “low polyreactivity”; “QVQLVESGGGLDQAGGSLRLSCAASGLIFGNYANRGYTQAPGKERELVAALSSGGSTHYADSVKGRFTISRDNAKNTVYLQMHSLNPEDTAVYYCAAGYRYAGNGQIANTGGYYWGQGTQVTVSW”: “low polyreactivity”.

With “QVQLVESGGGLDQAGGSLRLSCAASGLIFLVNAMGWYRQPPWKERDLVAAIDLDGGITYADSVKGRFTISRDNAKNTVYLQMNSLKPEDTAVYYCAADPSSYGRFTYDYWGQGTQVTVSS”, the “polyreactivity (PSR sort gate)” value is listed as “low polyreactivity”.

As to “QVQLVESGGGLDQAGGSLRLSCAASGLIFYAYTMGWYRQAPWKERELVAAINYSGGSTYYADSVKGRFTISRDNAKNTVYLQMNSLKPEDTAVYYCATRTGHWGQGTQVTVSS”, the “polyreactivity (PSR sort gate)” value was “low polyreactivity”.

Regarding “QVQLVESGGGLDQAGGSLRLSCAASGLIFYYYAMGWYRQAPGKERELVAAISSNGGSTYYADSVKGRFTISRDNAKNTVYLQMNSLKPEDTAGYYCAAVGRVDGYRYDYWGQGTQVTVSS”, the “polyreactivity (PSR sort gate)” value is given as “high polyreactivity”. “QVQLVESGGGLDQAGGSLRLSCAASGLTFDANAMGWYRQAPGKERELVAAISSGGSTYADSVKGRFTISRDNAKNTVYLQMNSLKPEDTAVYYCNAVSIDVIQGDYNYWGQGTQVTVSS”: the “polyreactivity (PSR sort gate)” value was “low polyreactivity”.

As to “QVQLVESGGGLDQAGGSLRLSCAASGRIFGYYAMGWYRQAPGKERELVAAISRSGGSTNYADSVKGRFTISRDTAKNTVYLQMNSLKPEDTAVYYCAVRYPYYSPFGGYDYWGQGTQVTVSS”, the “polyreactivity (PSR sort gate)” value was “high polyreactivity”. For “QVQLVESGGGLDQAGGSLRLSCAASGRIFIDNTMAWYRQAPGKERELVAAISWSGGSTYYADSVKGRFTISRDNAKNTVYLQMNSLKPEDTAVYYCAARSLRSNGRTWAVTYDYWGQGTQVTVSS” the value was “low polyreactivity”; for “QVQLVESGGGLDQAGGSLRLSCAASGRIFRCYAMGWYREAPGKERELVAAISWSSGNTYYADSVKGRFTISRDNAKNTVYLQMNSLKAEDTAVYYCAADFKPTSRSNKYYYWGQGTQVTVSS”, “high polyreactivity”. For “QVQLVESGGGLDQAGGSLRLSCAASGRIFTVYGMGWYRQAPGKERELVAAISWSGGGTYYADSVKGRFTISRDNAKNTVYLQMNSLKPEDTAVYYCNADRQYTWSLVFFSSDYDYWGQGTQVTVSS” the value was “low polyreactivity”. Next, “QVQLVESGGGLDQAGGSLRLSCAASGRIFTYYTMGWYRQAPGKERELVATIRWSGGRTYYADSVKGRFTISRDNAKNTVYLQMNSLKPEDTAVYYCAANTYWRHYTPYTYGYWGQGTQVTVSS”: “high polyreactivity”; “QVQLVESGGGLDQAGGSLRLSCAASGRISVFYAMGWYRQAPGKERELVAAISRGSSTYYADSVKGLFTISRDNAKNTVYLQMNSLKPEETAVYYCNRARYYLYDGGYWGQGTQVTVSS”: “high polyreactivity”; “QVQLVESGGGLDQAGGSLRLSCAASGRTFGVYAMGWYRQAPGKERELVAAITGRGGSTYYADSVKGRFTISRDNAKNTVYLQMNSLKPEDTAVYYCNAELYEYQSWDDYWGQGTQVTVSS”: “low polyreactivity”. “QVQLVESGGGLDQAGGSLRLSCAASGRTFKPYAMGWYRQAPGKERELVARISGSGGSTYYADSVKGRFSISRDNAKNTVYLQMNSLKPEDTAVYYCATTPYYWFDYWGQGTQVTVSS”: the “polyreactivity (PSR sort gate)” value is “low polyreactivity”. Consider “QVQLVESGGGLDQAGGSLRLSCAASGRTFPYNTMGWYRQAPGKERELVASITYTDGSTSYADSVKGRFTISRDNAKNTVYLQMNSLKPEDTSVYYCAADYYAHQDYRFDYWGQGTQVTVSS”, for which the “polyreactivity (PSR sort gate)” value was “low polyreactivity”.

In the case of “QVQLVESGGGLDQAGGSLRLSCAASGRTFTRYALCWYRQAPGNVRELVATMTRGARTYYADSVKGRFTISRDNAKNTVYLQMNSLKPVDTAVYYCNAVYSFLSPDQMGYWGQGTQVTVSS”, the “polyreactivity (PSR sort gate)” value is on record as “high polyreactivity”. Next, “QVQLVESGGGLDQAGGSLRLSCAASGRTFYSYAMGWYRQAPGKERELVAAITSGGRTKYADSVKGRFTISRDNAKNTVYLQMNSLKAEDTAVYYCAADRVSYYTTPYDYWGQGTQVTVSS”: “high polyreactivity”; “QVQLVESGGGLDQAGGSLRLSCAASGRTLSRYAMGWYRQAPGKERELVASMSWSGGRTYYADSVKGRFTISRDNAKNTVYLEMNSLKPEDTAVYYCAAVYVTAPFDYWGQGTQVTVSS”: “low polyreactivity”.

For the sequence “QVQLVESGGGLDQAGGSLRLSCAASGSIFAGYAMGWYRQAHGKERELVAAINWTGDSTYYADSVKGRFTISRDNAKNTVYLQMNRLKPEDTAVYYCAAIRRQKGLWDYYYWGQGTQVTVSS”, the “polyreactivity (PSR sort gate)” value is recorded as “low polyreactivity”.

Turning to “QVQLVESGGGLDQAGGSLRLSCAASGSIFDYYTMGWYRQAPGKERELVASITQSGGSTYYADSVKGRFTISRDNAKNTVYLQMTSLKPEDTAVYYCAADGRYVRIRGDYWGQGTQVTVSS”, the “polyreactivity (PSR sort gate)” value is “low polyreactivity”.

As for “QVQLVESGGGLDQAGGSLRLSCAASGSIFFGNAMGWSRQPPGKERELVAAITTSGGSTYYADSVKGRFTISRDNAKNTLYLQMNSLKPEDTAVYYCYARIASWLGSRYEYWGQGTQVTVSS”, the “polyreactivity (PSR sort gate)” value is “low polyreactivity”. Next, “QVQLVESGGGLDQAGGSLRLSCAASGSIFGYAMGWYRQAPGKERELVAAIRWGGGSTYYADSVKGRFTISRDNAKKTVYLQMNSLKPEDTAVYYCAARYYRPGVLANYYWGQGTQVTVSS”: “high polyreactivity”; “QVQLVESGGGLDQAGGSLRLSCAASGSIFPFYAMGWYRQAPGKERELVAAISDRGGSTYYADSVKGRFTISRDNAKNSVYLQMNSLKPEATAVYYCAKGGEVSQGYTDEYDYWGQGTQVTVSS”: “low polyreactivity”; “QVQLVESGGGLDQAGGSLRLSCAASGSIISGYAMGWYRQAPGKERELVAAISSSGGRTYYADSVKGRFTISRDNAKNTVYLQMNSLKPEDTAVYYCNARQFSRYDYNYWGQGTQETVSS”: “high polyreactivity”.

On to “QVQLVESGGGLDQAGGSLRLSCAASGSIYNRYAMGWYRQAPGKERELVADISSGGGTSYADSVKGRFTISRDNAKNTVYLQMNSLKPEDTAVYYCAAELYYWTYVRFDYWGQGTQVTVSS”, for which the “polyreactivity (PSR sort gate)” value is given as “high polyreactivity”.

“QVQLVESGGGLDQAGGSLRLSCAASGSIYYTAMGWYRQAPGKERELVASISTGDSTDYADSVKGRFTISRDNAKNTVYLQMNSLKPEDTAVYYCAADTRLGYWDDYWGQGTQVTVSS”: the “polyreactivity (PSR sort gate)” value was “low polyreactivity”. Next, “QVQLVESGGGLDQAGGSLRLSCAASGSNFSGWYTMGWYRQAPGKERELVASISISTTDTYYADSVKGRFTISRDNAKKTVYVQMNSLKPEDTAVYYCAAYGWDHVIVEYDYWGQGTQVTVSS”: “low polyreactivity”; “QVQLVESGGGLDQAGGSLRLSCAASGSTFDTYAMGGYRQAPGKERELVAAISVSGTSTSYADSVKGRFTISRDNAKNTVYLQMNILNPEDTAVYYCIATDFSRNPGYARPEYDYWGQGTQVTVSS”: “low polyreactivity”; “QVQLVESGGGLDQAGGSLRLSCAASGSTFGGNAMGWYRQAPGKERELVAAISGGDRTNYADSVKGRFTISRDNAKNSVYLQMNSLKPEDTAVYYCAADAGYWDLRSGIYKEDYWGQGTQVTVSS”: “low polyreactivity”. Take “QVQLVESGGGLDQAGGSLRLSCAASGSTFRRYAMGWYRQAPGKERELVAAITGSGGRTYYADSVKGRFTISRDNAKNTVYLQMNSLKPEDTAVYYCNAVSYIDYSRARIRYEYWGQGTQVTVSS”: the “polyreactivity (PSR sort gate)” value is “high polyreactivity”. With “QVQLVESGGGLDQAGGSLRLSCAASGSTFTSYDMGWYIQAPGKERELVAAITISSGGTYYADSVKGRFTISRDTAKNTVYLQMNSLKPEDTEVYYCAADIFADASYDYWGLGTQVTVSS”, the “polyreactivity (PSR sort gate)” value is “low polyreactivity”. Next, “QVQLVESGGGLDQAGGSLRLSCAASGSTFVGYAMGWYRQAPGKERELVAAISQSDVSTYYADSVKGRFTISRDNAKNTVYLQMNSLKPEDTAVYYCAADRGGLRWFWQVLYDYWGQGTQVTVSS”: “low polyreactivity”. For “QVQLVESGGGLDQAGGSLRLSCAASGSTSAYYVMGWYRQAPGKERELVAAIDFSGDSTYYADSVKGRFTISRDNAKNTVYLQMISLKPEDSAVYYCAAELFFYSSLVTYEYWGQGTQVTVSS” the value was “high polyreactivity”; for “QVQLVESGGGLDQAGGSLRLSCAASGSTSLSYAMGWYRQAPGKERELVAAISRGGSTTYADSVKGRFTISRDNAKNPVYFQMKSLKPVDTAVYYCAVGYDIVRYSYSPFYRYDYWGQGTQVTVSS”, “low polyreactivity”.
